Experimental data taken from the supplement of paper PMC9112550, “Optimization of the antimicrobial peptide Bac7 by deep mutational scanning” (BMC Biology, 2022).

Test system: Escherichia coli TOP10
Experiment: shrunken log2 fold change of peptide-encoding DNA abundance (4.5 h post-induction vs induction); higher = less antimicrobial activity (less host growth inhibition)
Details: time post-induction: 4.5 h; library: site-saturation at positions 5, 18, 19, 20
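Note: peptides expressed intracellularly from a pBAD plasmid library in pooled LB shake-flask culture, induced with 0.3% L-arabinose, DNA abundance read by NGS, three biological replicates, DESeq2 with apeglm shrinkage.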

| Sequence | shrunken log2 fold change |
| --- | --- |
| RRIRHRPPRLPRPRPRPKKSPRP | -0.0145 |
| RRIRHRPPRLPRPRPRPKLNPRP | -0.248 |
| RRIRHRPPRLPRPRPRPKNEPRP | -0.476 |
| RRIRHRPPRLPRPRPRPKRVPRP | -0.0983 |
| RRIRHRPPRLPRPRPRPKSFPRP | -0.0233 |
| RRIRHRPPRLPRPRPRPKSRPRP | -0.0231 |
| RRIRHRPPRLPRPRPRPKTQPRP | -0.15 |
| RRIRHRPPRLPRPRPRPKTSPRP | -0.0692 |
| RRIRHRPPRLPRPRPRPKWDPRP | -0.00576 |
| RRIRHRPPRLPRPRPRPKWHPRP | -0.108 |
| RRIRHRPPRLPRPRPRPKWIPRP | -0.779 |
| RRIRHRPPRLPRPRPRPKYAPRP | -0.0413 |
| RRIRHRPPRLPRPRPRPLAQPRP | 0.00325 |
| RRIRHRPPRLPRPRPRPLDHPRP | -0.34 |
| RRIRHRPPRLPRPRPRPLDYPRP | -0.0824 |
| RRIRHRPPRLPRPRPRPLECPRP | -0.257 |
| RRIRHRPPRLPRPRPRPLELPRP | -0.0293 |
| RRIRHRPPRLPRPRPRPLHEPRP | 0.0601 |
| RRIRHRPPRLPRPRPRPLHVPRP | 0.146 |
| RRIRHRPPRLPRPRPRPLIHPRP | -0.575 |
| RRIRHRPPRLPRPRPRPLKCPRP | -0.024 |
| RRIRHRPPRLPRPRPRPLKDPRP | -0.361 |
| RRIRHRPPRLPRPRPRPLKRPRP | -0.00686 |
| RRIRHRPPRLPRPRPRPLLPPRP | -0.0821 |
| RRIRHRPPRLPRPRPRPLMDPRP | -0.974 |

| Sequence | shrunken log2 fold change |
| --- | --- |
| RRIRHRPPRLPRPRPRPLNGPRP | -0.178 |
| RRIRHRPPRLPRPRPRPLNRPRP | 0.0215 |
| RRIRHRPPRLPRPRPRPLPCPRP | -0.0645 |
| RRIRHRPPRLPRPRPRPLQMPRP | -0.147 |
| RRIRHRPPRLPRPRPRPLRFPRP | -0.172 |
| RRIRHRPPRLPRPRPRPLRGPRP | 1.02 |
| RRIRHRPPRLPRPRPRPLSGPRP | -0.35 |
| RRIRHRPPRLPRPRPRPLSWPRP | 0.146 |
| RRIRHRPPRLPRPRPRPLTCPRP | -0.0216 |
| RRIRHRPPRLPRPRPRPLTTPRP | -0.142 |
| RRIRHRPPRLPRPRPRPLVIPRP | -0.343 |
| RRIRHRPPRLPRPRPRPLVNPRP | -0.117 |
| RRIRHRPPRLPRPRPRPLVTPRP | 1.93 |
| RRIRHRPPRLPRPRPRPLVWPRP | 0.482 |
| RRIRHRPPRLPRPRPRPLVYPRP | -0.0877 |
| RRIRHRPPRLPRPRPRPLWTPRP | -0.174 |
| RRIRHRPPRLPRPRPRPLYQPRP | -0.112 |
| RRIRHRPPRLPRPRPRPMAAPRP | 0.53 |
| RRIRHRPPRLPRPRPRPMAEPRP | -0.165 |
| RRIRHRPPRLPRPRPRPMAGPRP | -0.0581 |
| RRIRHRPPRLPRPRPRPMETPRP | -0.0865 |
| RRIRHRPPRLPRPRPRPMFRPRP | -0.422 |
| RRIRHRPPRLPRPRPRPMFTPRP | -0.102 |
| RRIRHRPPRLPRPRPRPMFVPRP | 0.0711 |
| RRIRHRPPRLPRPRPRPMGDPRP | -0.0774 |

| Sequence | shrunken log2 fold change |
| --- | --- |
| RRIRHRPPRLPRPRPRPMHQPRP | -0.108 |
| RRIRHRPPRLPRPRPRPMIDPRP | -0.161 |
| RRIRHRPPRLPRPRPRPMIPPRP | 0.132 |
| RRIRHRPPRLPRPRPRPMKDPRP | -0.778 |
| RRIRHRPPRLPRPRPRPMKIPRP | -0.0248 |
| RRIRHRPPRLPRPRPRPMKSPRP | -0.00231 |
| RRIRHRPPRLPRPRPRPMLKPRP | -0.164 |
| RRIRHRPPRLPRPRPRPMLLPRP | 0.0408 |
| RRIRHRPPRLPRPRPRPMLMPRP | -0.121 |
| RRIRHRPPRLPRPRPRPMLWPRP | 0.0253 |
| RRIRHRPPRLPRPRPRPMMFPRP | -0.18 |
| RRIRHRPPRLPRPRPRPMMIPRP | 0.00431 |
| RRIRHRPPRLPRPRPRPMPKPRP | 0.193 |
| RRIRHRPPRLPRPRPRPMPMPRP | 0.0326 |
| RRIRHRPPRLPRPRPRPMPPPRP | 0.00237 |
| RRIRHRPPRLPRPRPRPMRGPRP | 0.384 |
| RRIRHRPPRLPRPRPRPMSDPRP | 0.00234 |
| RRIRHRPPRLPRPRPRPMSVPRP | -0.294 |
| RRIRHRPPRLPRPRPRPMTDPRP | -0.898 |
| RRIRHRPPRLPRPRPRPMWAPRP | -0.0936 |
| RRIRHRPPRLPRPRPRPNAHPRP | -0.0872 |
| RRIRHRPPRLPRPRPRPNAQPRP | -0.00277 |
| RRIRHRPPRLPRPRPRPNDMPRP | -0.26 |
| RRIRHRPPRLPRPRPRPNDTPRP | -0.933 |
| RRIRHRPPRLPRPRPRPNFWPRP | 0.257 |
